Results: US20260209355A1 (BIOND BIOLOGICS, published 2026)
Where a chain is given by its changes, count along the chain named.

Experiments:
[1] = target: T1, c-Myc conjugated and biotinylated human CD28 stalk region dimeric peptide (wild-type) (human, C-terminal biotin; Cysteine at position 141 (CD28 numbering) forms the disulfide linkage of the dimer); assay: phage library screen by ELISA and flow cytometry against recombinant CD28 extracellular domain and the dimeric stalk region peptide
T1 construct: the Methods describe only this biotinylated dimeric peptide design, so it is used here; also called Biotin conjugated CD28 stalk region dimeric peptide; WT peptide
T1 peptide: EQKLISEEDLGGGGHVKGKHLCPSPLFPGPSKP

[2] = target: T2, membranal human CD28 (human, UniProt P10747 19-220); assay: FACS, FITC conjugated VHH on HEK cells overexpressing CD28
T2 construct: also called mCD28; HEK cells overexpressing human CD28

[3] = target: T3, L145K mutated biotinylated and Myc tagged human CD28 stalk region dimeric peptide (human, C-terminal biotin; Cysteine at position 141 (CD28 numbering) forms the disulfide linkage of the dimer); assay: direct ELISA, peptide on neutravidin plate, anti His tag-HRP
T3 construct: also called L145K CD28 stalk region dimeric peptide; mutant peptide
T3 peptide: T1 peptide with L26K
Procedure: (§1) Biotin conjugated wild-type or L145K CD28 stalk region dimeric peptides were immobilized on neutravidin coated ELISA maxi-sorb plates. A dilution series of VHH clones (0.2-5 μg/mL) and an irrelevant VHH clone (top left chart) was performed and detection of bound VHH was done with anti His tag-HRP conjugated antibody and development was done with TMB.

[4] = target: T1, c-Myc conjugated and biotinylated human …; assay: direct ELISA, WT stalk dimeric peptide on neutravidin plate, VHH 0.2-5 µg/mL
Procedure: as §1

B1: VHH clone 2A1 (VHH)
VHH: EVQLVESGGGLVQAGESLRLSCAASGSIASINAMGWYRQAPGSQRELVAAISGGGDTYYADSVKGRFTISRDNAKTTVYLQMNSLRPEDTAVYYCVVDLYGSDYWDWGQGTQVTVSS
modifications: FITC conjugated in the FACS assay of FIG. 6
notes: Produced recombinantly in CHO cells; from a naive llama VHH phage library; The printed text reads 'EVOLVESGGG' (probably Q); also called VHH #2A1
**Q.** Does B1 bind [1]?
**A.** binds

**Q.** Does B1 bind [2]?
**A.** binds

**Q.** Does B1 bind [3]?
**A.** no binding (tested: 0.2-5 µg/mL)

B2: VHH clone 4A1 (VHH)
VHH: QVQLVESGGGLVQAGGSLRLSCAASGSIFSINAMGWYRQAPGKQRERVAAITSGGSTNYADSVKGRFTISRDNAKNTVYLQMNNLEPRDAGVYYCVVDLYGEDYWIWGQGTQVTVSS
notes: Produced recombinantly in CHO cells
**Q.** Does B2 bind [4]?
**A.** binds

**Q.** Does B2 bind [3]?
**A.** no binding (tested: 0.2-5 µg/mL)

B3: VHH clone 4A4 (VHH)
VHH: EVQLVESGGGLVQAGGSLRLSCAASGSLFSINAMAWYRQAPGKQRELVAAITSSGSTNYANSVKGRFTVSRDNAKNTMYLQMNSLKPEDTAVYYCVVDEYGSDYWIWGQGTQVTVSS
notes: as for B2
**Q.** What does the source list for B3?
**A.** binding result [4]: binds; binding result [3]: no binding (tested: 0.2-5 µg/mL)
